The supplement of paper PMC9170038

Test system: MS2 coat protein
Test: apparent KD of MS2 coat protein; designed switch direction (-1 OFF switch, 1 ON switch): -1; higher = weaker reporter binding
Method in brief: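 Stalled E. coli RNA polymerase transcribed designed RNA switches on Illumina chips, which were then titrated with SNAP-549-labelled MS2 coat protein, doubling from 0.7 or 1.5 nM to 3 µM. Steps lasted from 0.8–1.5 h at the lowest concentration to 10–20 min at the highest. The apparent KD is each design's median over clusters of curve-fitted normalised fluorescence.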

[1] = input ligand: microRNA oligo, concentration not stated
[2] = Eterna round: R95, input ligand: FMN 200 uM
[3] = Eterna round: R95, input ligand: microRNA oligo, concentration not stated
[4] = Eterna round: R95, input ligand: none

Sequence | apparent KD of MS2 coat protein (input ligand: FMN 200 uM) | apparent KD of MS2 coat protein [1] | apparent KD of MS2 coat protein (input ligand: none) | apparent KD of MS2 coat protein [3] | other results
GGGUGACAGUUAGGAUAUCUUAGCACGCCGUAGAGAGAAGGGACAUGAGGAUCACCCAUGUUGUAGUGCCUCCAGCACUGCUAG [Esrasoce] (Eterna round: R96, puzzle: Exclusion NG 1) | 105 nM | 34 nM | 66.4 nM | – | –
GAUAAGGUAGGAUAUACGAAUAAAAAGGGUAGAAGAAGAACACAUGAGGAUCACCCAUGUAGAAGGACCAAGAG [Mat - Exclusion 2 - Mod of my Tesla design - D23] (puzzle: Exclusion 2) | – | – | – | 20.6 nM | apparent KD of MS2 coat protein [2]: 43 nM; apparent KD of MS2 coat protein [4]: 19.6 nM
CUUCACCCACCAGAGCUCACCCACAUACCAGCUCUGGUGACAUGAGGAUCACCCAUGUUUUUUGCCCGUCUUAUCUU [Intibima] (Eterna round: R96, puzzle: Sensor v3, turn-off variant 2) | 65 nM | 218 nM | 79.1 nM | – | –
AGUCAGGCGGUAGGAUAUCCAUAUCGAGUGACCCUUUCAUAACAUGAGGAUCACCCAUGUCGGUGGGAGAAGGGCCGUACGGCA [Mat - Exclusion NG 2 - Mod of JL - D68] (Eterna round: R96, puzzle: Exclusion NG 2) | 116 nM | 52.3 nM | 89.3 nM | – | –
GCCGAUUAAGUCAGGAUAUACCUAUGGAUACAUAGGUAGAAGGGACAUGAGGAUCACCCAUGUUCCUCUACGGC [Fiskers BMX 4 - 16] (puzzle: Brourd's mod of Exclusion 4) | – | – | – | 13.6 nM | –
AUUUAACAUGAGGAUCACCCAUGUGAGGAUAUGCGAGUAUAGACUUCGGUCUGAUAGAGCAGAAGGCGCAGAUA [EX1 #8] (Eterna round: R97, puzzle: Exclusion 1) | 67.7 nM | – | 55.9 nM | – | –
AGUAGAUCUACGCUUGCGUGGAUCUGCUAUGCAGGUGUUACAUGAGGAUCACCCAUGUCCUCAUUUGCUCGUCUUAU [JL turnoff v2 99.14] (puzzle: Sensor v3, turn-off variant 2) | – | – | – | 356 nM | apparent KD of MS2 coat protein [2]: 133 nM; apparent KD of MS2 coat protein [4]: 138 nM
ACAUGAGGAUCACCCAUGUGACCACGAUGGCUGAUGUAGAGCUAGGAUAUGUGUGAAUAUCUAUCACAGAAGGAGCUUGACUGG [Deportation 52 - Jieux - Exclusion NG 3] (Eterna round: R96, puzzle: Exclusion NG 3) | 24.7 nM | 18.3 nM | 25.7 nM | – | –
GCAGAAAGUGUAGGAUAUAUAAAUUAGCGGAAACGCAAUACAUGAGGAUCACCCAUGUUUCCUCAAUAGAAGGGCAAAAGCUGC [EXNG2 V2 e] (Eterna round: R96, puzzle: Exclusion NG 2) | 88 nM | 37.9 nM | 79.8 nM | – | –
AAUUAGCAAGCGAGAUCCCACAUGAGGAUCACCCAUGUGCUCGUCUUAUAUAAGGUACUGUACGAAAGUACGGUACC [Mat - Sensor, turn-off var - Eli Mod - D31] (Eterna round: R97, puzzle: Sensor, turn-off variant 1) | 16.4 nM | – | 16.4 nM | – | –
UUUUAACAUGAGGAUCACCCAUGUGAGGAUAUCGAAAUUUAUAUUAAUAUUUUUAAUACGAGAAGGCACAUUUU [JMF 70] (puzzle: Exclusion 1) | – | – | – | 49.6 nM | –
UAUUAGCAAGCGAGAUCCUACAUGAGGAUCACCCAUGUGCUCGUCUUGUAAGGUACUGUGACGAAAGUCACGGUACC [Eli 91 v38] (Eterna round: R97, puzzle: Sensor, turn-off variant 1) | 16.5 nM | – | 15.6 nM | – | –
GCGCCAUCGUGAGAUGGCGUAUAUACAUGAGGAUCACCCAUGUAGGAUAUCGAUUGCUUUGCAGUCGAGAAGGGCAUGUAAUUU [JL ENG3 3.93] (Eterna round: R96, puzzle: Exclusion NG 3) | – | 25.8 nM | – | – | –
GUAUAACUACACGGGCUCAACAUGAGGAUCACCCAUGUCAUAUACGCAAGCUUUUUGCUUGUCUUACCUGUCCGUGA [Ariedbi] (puzzle: Sensor v3, turn-off variant 1) | – | – | – | 10.4 nM | apparent KD of MS2 coat protein [2]: 11.5 nM; apparent KD of MS2 coat protein [4]: 10.1 nM
GUAGAGUAAGGAUAUGGUGAAUAGGAUAGAAUGGUUAGAAAUCAGAAGGUACAUGAGGAUCACCCAUGUAAUGU [Excluse me!!!! 15 - Jieux - Exclusion 4] (puzzle: Exclusion 4) | – | – | – | 21 nM | –
UUUAUUUUGCAAGGAUAUGUUUAAUUUUAGUUUCCUUACACAUGAGGAUCACCCAUGUUAUACUUACAGAAGGUGCGUAAUUUU [Excl-NG2-LRO01] (Eterna round: R96, puzzle: Exclusion NG 2) | – | 101 nM | – | – | –
AUAAGUAUAUAGGAUAUCUAGCUGGAAACAGCUAGAGAAGGAUGUACAUGAGGAUCACCCAUGUAAAUCAAUAG [Ex6/8-A2] (Eterna round: R97, puzzle: Exclusion 6) | 17.9 nM | – | 19.6 nM | – | –
GAGUAGCUAGGAUAUCGAAAACAUCACAUGAGGAUCACCCAUGUGCCGGGUGCUCAGAUGCGAGAAGGAGCAAAGA [Reatququ] (puzzle: Exclusion 5) | – | – | – | 131 nM | apparent KD of MS2 coat protein [2]: 219 nM; apparent KD of MS2 coat protein [4]: 175 nM
CUGGUCCGAGGAUAUAUGAUGUGAAACAUGAGGAUCACCCAUGUAAUAUUAUGGAAGUAAAUAGAAGGCGGACUAG [Mat - Exclusion 5 - JL mod - D34] (puzzle: Exclusion 5) | – | – | – | 49.5 nM | apparent KD of MS2 coat protein [2]: 28.6 nM; apparent KD of MS2 coat protein [4]: 37 nM
UUUUAACAUGAGGAUCACCCAUGUGAGGAUAUCGAAAUUUAUAUUAAUAUUAAUUUUUCGAGAAGGCACAUUUU [JMF 33] (puzzle: Exclusion 1) | – | – | – | 143 nM | –
CUUUUGUGAGGAUAUUAGUAGUAAAAAAAUAAAAUUACUACUGAGAAGGCACAUGAGGAUCACCCAUGUUCCUU [salish99_ex4_r3_039] (puzzle: Exclusion 4) | – | – | – | 14.1 nM | –
UAUAUAUAGUAAGGAUAUGUAAUCAUUUUAUAAACAGAAGGUACUGACAUGAGGAUCACCCAUGUUUUAGUGUGGGCAUGUAGA [JMF's solution 31] (Eterna round: R96, puzzle: Exclusion NG 1) | – | 64.6 nM | – | – | –
